Assay results as given in FireProtDB (doi:10.1093/protein/gzw068).

B1: S68R, Q93D82 (parent)
chain: MSTAIVTNVKHFGGMGSALRLSEAGHTVACHDESFKQKDELEAFAETYPQLKPMSEQEPAELIEAVTSAYGQVDVLVSNDIFAPEFQPIDKYAVEDYRGAVEALQIRPFALVNAVASQMKKRKSGHIIFITSATPFGPWKELSTYTSARAGACTLANALSKELGEYNIPVFAIGPNYLHSEDSPYFYPTEPWKTNPEHVAHVKKVTALQRLGTQKELGELVAFLASGSCDYLTGQVFWLAGGFPMIERWPGMPE

Variants of: B1
Conditions: Rhizobium radiobacter; pH 7.7; Thermal; CD; Phosphate 5mM; structure 1PWX; whole UniProt chain shown

Row | Variant | Tm [°C] | change of melting temperature, mutant - wild type (higher = more stable) [°C]
1 | MSTAIVTNVKHFGGMGSALRLSEAGHTVACHDESFKQKDELEAFAETYPQLKPMSEQEPAELIEAVTRAYGQVDVLVSNDIFAPEFQPIDKYAVEDYRGAVEALQIRPFALVNAVASQMKKRKSGHIIFITSATPFGPWKELSTYTSARAGACTLANALSKELGEYNIPVFAIGPNYLHSEDSPYFYPTEPWKTNPEHVAHVKKVTALQRLGTQKELGELVAFLASGSCDYLTGQVFWLAGGFPMIERWPGMPE [S68R] | 66.5 | 1.5
2 | MSTAIVTNVKHFGGMGSALRLSEAGHTVACHDESFKQKDELEAFAETYPQLKPMSEQEPAELIEAVTSAYGQVDVLVSNDIFAPEFQPIDKYNVEDYRGAVEALQIRPFALVNAVASQMKKRKSGHIIFITSATPFGPWKELSTYTSARAGACTLANALSKELGEYNIPVFAIGPNYLHSEDSPYFYPTEPWKTNPEHVAHVKKVTALQRLGTQKELGELVAFLASGSCDYLTGQVFWLAGGFPMIERWPGMPE [A93N] | 69 | 4
3 | MSTAIVTNVKHFGGMGSALRLSEAGHTVACHDESFKDKDELEAFAETYPQLKPMSEQEPAELIEAVTSAYGQVDVLVSNDIFAPEFQPIDKYAVEDYRGAVEALQIRPFALVNAVASQMKKRKSGHIIFITSATPFGPWKELSTYTSARAGACTLANALSKELGEYNIPVFAIGPNYLHSEDSPYFYPTEPWKTNPEHVAHVKKVTALQRLGTQKELGELVAFLASGSCDYLTGQVFWLAGGFPMIERWPGMPE [Q37D] | 65 | 0
4 | MSTAIVTNVKHFGGMGSALRLSEAGHTVACHDESFKQKDELEAFAETYPQLKPMSEQEPAELIEAVTSAYGQVDVLVSNDIFAPEFQPIDKYAVEDYRGAVEALQIRPFALVNAVASQMKKRKSGHIIFITSAIPFGPWKELSTYTSARAGACTLANALSKELGEYNIPVFAIGPNYLHSEDSPYFYPTEPWKTNPEHVAHVKKVTALQRLGTQKELGELVAFLASGSCDYLTGQVFWLAGGFPMIERWPGMPE [T134I] | 63.5 | -1.5
5 | MSTAIVTNVKHFGGMGSALRLSEAGHTVACHDESFKQKDELEAFAETYPQLKPMSEQEPAELIEAVTSAYGQVDVLVSNDIFAPEFQPIDKYAVEDYRGAVEALQIRPFALVNAVASQMKKRKSGHIIFITSATPFGPWKELSTYTSARAGACTLANALSKELGEYNIPVFAIGPNYLHSEDSPYFYPTTPWKTNPEHVAHVKKVTALQRLGTQKELGELVAFLASGSCDYLTGQVFWLAGGFPMIERWPGMPE [E190T] | 66.5 | 1.5
6 | MSTAIVTNVKHFGGMGSALRLSEAGHTVACHDESFKQKDELEAFAETYPQLKPMSEQEPAELIEAVTSAYGQVDVLVSNDIFAPEFQPIDKYAVEDYRGAVEALQIRPFALVNAVASQMKKRKSGHIIFITSATPFGPWKELSTYTSARAGACTLANALSKELGEYNIPVFAIGPNYLHSEDSPYFYPTEPWKTNPEHVAHVKKVTALQRLGNQKELGELVAFLASGSCDYLTGQVFWLAGGFPMIERWPGMPE [T213N] | 61.5 | -3.5
7 | MSTAIVTNVKHFGGMGSALRLSEAGHTVACHDESFKQKDELEAFAETYPQLKPMSEQEPAELIEAVTSAYGQVDVLVSNDIFAPEFQPIDKYAVEDYRGAVEALQIRPFALVNAVASQMKKRKSGHIIFITSATPFGPWKELSTYTSARAGACTLANALSKELGEYNIPVFAIGPNYLHSEDSPYFYPTEPWKTNPKHVAHVKKVTALQRLGTQKELGELVAFLASGSCDYLTGQVFWLAGGFPMIERWPGMPE [E197K] | 67.5 | 2.5
8 | MSTAIVTNVKHFGGMGSALRLSEAGHTVACHDESFKQKDELEAFAETYPQLKPMSEQEPAELIEAVTSAYGQVDVLVSNDIFAPEFQPIDKYAVEDYRGAVEALQIRPFALVNAVASQMKKRKSGHIIFITSATPFGPWKELSIYTSARAGACTLANALSKELGEYNIPVFAIGPNYLHSEDSPYFYPTEPWKTNPEHVAHVKKVTALQRLGTQKELGELVAFLASGSCDYLTGQVFWLAGGFPMIERWPGMPE [T144I] | 57 | -8
9 | MSTAIVTNVKHFGGMGSALRLSEAGHVVACHDESFKQKDELEAFAETYPQLKPMSEQEPAELIEAVTSAYGQVDVLVSNDIFAPEFQPIDKYAVEDYRGAVEALQIRPFALVNAVASQMKKRKSGHIIFITSATPFGPWKELSTYTSARAGACTLANALSKELGEYNIPVFAIGPNYLHSEDSPYFYPTEPWKTNPEHVAHVKKVTALQRLGTQKELGELVAFLASGSCDYLTGQVFWLAGGFPMIERWPGMPE [T27V] | 64.5 | -0.5
10 | MSTAIVTNVKHFGGMGSALRLSEAGHTVACHDESFKQKDELEAFAETYPQLKPMSEQEPAELIEAVTSAYGQVDVLVSNDIFAPEFQPIDKYAVEDYRGAVEALQIRPFALVNAVASQMKKRKSGHIIFITSATPFGPWKELSTYTSARAGALTLANALSKELGEYNIPVFAIGPNYLHSEDSPYFYPTEPWKTNPEHVAHVKKVTALQRLGTQKELGELVAFLASGSCDYLTGQVFWLAGGFPMIERWPGMPE [C153L] | 63 | -2
11 | MSTAIVTNVKHFGGMGSALRLSEAGHTVACHDESFKQKDELEAFAETYPQLKPMSEQEPAELIEAVTSAYGQVDVLVSNDIFAPEFQPIDKYAVEDYRGAVEALQIRPFALVNAVASQMKKRKSGHIIFITSATPFGPWKELSTYTSARAGACTLANALSKELGAYNIPVFAIGPNYLHSEDSPYFYPTEPWKTNPEHVAHVKKVTALQRLGTQKELGELVAFLASGSCDYLTGQVFWLAGGFPMIERWPGMPE [E165A] | 65.5 | 0.5
12 | MSTAIVTNVKHFGGMGSALRLSEAGHTVACHDESFKQKDELEAFAETYPQLKPMSEQEPAELIEAVTSAYGQVDVLVSNDIFAPEFQPIDKYAVEDYRGAVEALQIRPFALVNAVASQMKKRKSGHIIFITSATPFGPWKELSTYTSARAGAVTLANALSKELGEYNIPVFAIGPNYLHSEDSPYFYPTEPWKTNPEHVAHVKKVTALQRLGTQKELGELVAFLASGSCDYLTGQVFWLAGGFPMIERWPGMPE [C153V] | 50.5 | -14.5
13 | MSTAIVTNVKHFGGMGSALRLSEAGHTVACHDESFKQKDELEAFAETYPQLKPMSEQEPAELIEAVTSAYGQVDVLVSNDIFAPEFQPIDKYAVEDYRGAVEALQIRPFALVNAVASQMKKRKSGHIIFITSATPFGPWKELSTYTSARAGACTLANALSKELGEYNIPVFAIGPNYLHSEDSPYFYPTEPWKTNPEHVAHVKKVTALQRLGTQKELGELVAFLASGSCDYLTGQVFWLAGGFPMIERWPGMGE [P253G] | 64.5 | -0.5
14 | MSTAIVTNVKHFGGMGSALRLSEAGHTVACHDESFKQKDELEAFAETFPQLKPMSEQEPAELIEAVTSAYGQVDVLVSNDIFAPEFQPIDKYAVEDYRGAVEALQIRPFALVNAVASQMKKRKSGHIIFITSATPFGPWKELSTYTSARAGACTLANALSKELGEYNIPVFAIGPNYLHSEDSPYFYPTEPWKTNPEHVAHVKKVTALQRLGTQKELGELVAFLASGSCDYLTGQVFWLAGGFPMIERWPGMPE [Y48F] | 65.5 | 0.5
15 | MSTAIVTNVKHFGGMGSALRLSEAGHTVACHDESFKQKDELEAFAETYPQLKPMSEQEPAELIEAVTSAYGQVDVLVSNDIFAPEFQPIDKYAVEDYRGAVEALQIRPFALVNAVASQMKKRKSGHIIFITSATPFGPWKELSTYTSARAGACTLANALSKELGEYNIPVFAIGPNYLHSEDSPYFYPTEPWLTNPEHVAHVKKVTALQRLGTQKELGELVAFLASGSCDYLTGQVFWLAGGFPMIERWPGMPE [K193L] | 65 | 0
16 | MSTAIVTNVKHFGGMGSALRLSEAGHTVACHDESFKQKDELEAFAETYPQLKPMSEQEPAELIEAVTSAYGQVDVLVSNDIFAPEFQPIDKYAVEDYRGAVEALQIRPFALVNAVASQMKKRKSGHIIFITSATPFGPWKELSTYTSARAGACTLANALSKELGEYNIPVFAIGPNYLHSEDSPYFYPTEPWKQNPEHVAHVKKVTALQRLGTQKELGELVAFLASGSCDYLTGQVFWLAGGFPMIERWPGMPE [T194Q] | 61 | -4
17 | MSTAIVTNVKHFGGMGSALRLSEAGHTVACHDESFKQKDELEAFAETYPQLKPMSEQEPAELIEAVTSAYGQVDVLVSNDIFAPEFQPIDKYAVEDYRGAVEALQIRPFALVNAVASQMKKRKSGYIIFITSATPFGPWKELSTYTSARAGACTLANALSKELGEYNIPVFAIGPNYLHSEDSPYFYPTEPWKTNPEHVAHVKKVTALQRLGTQKELGELVAFLASGSCDYLTGQVFWLAGGFPMIERWPGMPE [H126Y] | 63.5 | -1.5
18 | MSTAIVTNVKHFGGMGSALRLSEAGHTVACHDESFKQKDELEAFAETYPQLKPMSEQEPAELIEAVTSAYGQVDVLVSNDIFAPEFQPIDKYAVEDYRGAVEALQIRPFALVNAVASQMKKRKSGHIIFITSATPFGPWKELSTYTSARAGACLLANALSKELGEYNIPVFAIGPNYLHSEDSPYFYPTEPWKTNPEHVAHVKKVTALQRLGTQKELGELVAFLASGSCDYLTGQVFWLAGGFPMIERWPGMPE [T154L] | 58.5 | -6.5
19 | MSTAIVTNVKHFGGMGSALRLSEAGHTVACHDESFKQKDELEAFAETYPQLKPMSEQEPAELIEAVTSAYGQVDVLVSNDIFAPEFQPIDKYAVEDYRGAVEALQIRPFALVQAVASQMKKRKSGHIIFITSATPFGPWKELSTYTSARAGACTLANALSKELGEYNIPVFAIGPNYLHSEDSPYFYPTEPWKTNPEHVAHVKKVTALQRLGTQKELGELVAFLASGSCDYLTGQVFWLAGGFPMIERWPGMPE [N113Q] | 61.5 | -3.5
20 | MSTAIVTNVKHFGGMGSALRLSEAGHTVACHDESFKQKDELEAFAETYPQLKPMSAQEPAELIEAVTSAYGQVDVLVSNDIFAPEFQPIDKYAVEDYRGAVEALQIRPFALVNAVASQMKKRKSGHIIFITSATPFGPWKELSTYTSARAGACTLANALSKELGEYNIPVFAIGPNYLHSEDSPYFYPTEPWKTNPEHVAHVKKVTALQRLGTQKELGELVAFLASGSCDYLTGQVFWLAGGFPMIERWPGMPE [E56A] | 65 | 0
21 | MSTAIVTNVKHFGGMGSALRLSEAGHTVACHDESFKQKDELEAFAETYPQLKPMSEQEPYELIEAVTSAYGQVDVLVSNDIFAPEFQPIDKYAVEDYRGAVEALQIRPFALVNAVASQMKKRKSGHIIFITSATPFGPWKELSTYTSARAGACTLANALSKELGEYNIPVFAIGPNYLHSEDSPYFYPTEPWKTNPEHVAHVKKVTALQRLGTQKELGELVAFLASGSCDYLTGQVFWLAGGFPMIERWPGMPE [A60Y] | 64.5 | -0.5
22 | MSTAIVTNVKHFGGMGSALRLSEAGHTVACHDESFKQKDELEAFAETYPQLKPMSEQEPAELIEAVTSHYGQVDVLVSNDIFAPEFQPIDKYAVEDYRGAVEALQIRPFALVNAVASQMKKRKSGHIIFITSATPFGPWKELSTYTSARAGACTLANALSKELGEYNIPVFAIGPNYLHSEDSPYFYPTEPWKTNPEHVAHVKKVTALQRLGTQKELGELVAFLASGSCDYLTGQVFWLAGGFPMIERWPGMPE [A69H] | 64.5 | -0.5
23 | MSTAIVTNVKHFGGMGSALRLSEAGHTVACHDESFKQKDELEAFAETYPQLKPMSEQEPAELIEAVTSAYGQVDVLVSNDIFAPEFQPIDKYAVEDYRGAVEALQIRPFALVNAVASQMKKRKSGHIIFITSATPFGPWKELSTYTSARAGACTLAWALSKELGEYNIPVFAIGPNYLHSEDSPYFYPTEPWKTNPEHVAHVKKVTALQRLGTQKELGELVAFLASGSCDYLTGQVFWLAGGFPMIERWPGMPE [N157W] | 56 | -9
